Results taken from publication PMC8837141, “Structural and Functional Differences between Homologous Bacterial Ribonucleases” (International Journal of Molecular Sciences, 2022).
Values belong to the molecule of their own block, whether it stands above or below them.

Legend:
[1] = target: balifase (Bacillus licheniformis); experiment: SEC; size-exclusion chromatography of the purified RNases; molecular weights from the elution profile of marker proteins; column and buffer not told
[2] = target: balnase (Bacillus altitudinis); experiment: as above
[3] = target: the molecule itself; experiment: as above
[4] = target: the molecule itself; experiment: dynamic light scattering; Zetasizer Nano ZS; RNase diluted with ultrapure water, filtered, sonicated for 2 min; particle size by volume distribution; ten runs of 30 s

B1: barnase (enzyme, Bacillus amyloliquefaciens, UniProt P00648 48-157, looked up)
chain: AQVINTFDGVADYLQTYHKLPDNYITKSEAQALGWVASKGNLADVAPGKSIGGDIFSNREGKLPGKSGRTWREADINYTSGFRNSDRILYSSDWLIYKTTDHYQTFTKIR
notes: barnase, guanyl-preferring ribonuclease of Bacillus amyloliquefaciens; also called RNase from B. amyloliquefaciens; source: homogeneous protein preparation, obtained using previously described three-step procedure [19,30]
- stoichiometry N [3]: 2

B2: binase (enzyme, Bacillus pumilus, UniProt P00649 54-162, looked up)
chain: AVINTFDGVADYLIRYKRLPDNYITKSQASALGWVASKGNLAEVAPGKSIGGDVFSNREGRLPSASGRTWREADINYVSGFRNADRLVYSSDWLIYKTTDHYATFTRIR
notes: binase, guanyl-preferring ribonuclease of Bacillus pumilus (~12 kDa), N1/T1/U2 family (IPR000026); also called RNase from B. pumilus; source: homogeneous protein preparation, obtained using previously described three-step procedure [19,30]
- stoichiometry N [4]: 2

The remaining lines, values ahead:

- stoichiometry N [1]: 2
Molecule: balifase (enzyme)

- stoichiometry N [2]: 2
Molecule: balnase (enzyme)
